According to PMC12350170, “Structural basis for the synergistic assembly of the snRNA export complex” (Nature Structural & Molecular Biology, 2025):
Substitutions are numbered along the chain they refer to. In names and notes the source's numbering stands.

What was measured:
Settings in all cases: both partners purified
[1] = molecular target: T1, Human nuclear cap-binding complex (CBC): CBP80ΔNLS with CBP20 (human, UniProt Q09161 20-790; P52298 1-156); test: SEC; Superdex 200 Increase 3.2/300; 180 pmol CBC and 360 pmol PHAX construct, CRM1 and RanGTP mixed with 100 μM capped 14-nt RNA (or U1 snRNA), 1 mM Mg2+, 1 mM KCl, 100 μM GTP, 30 min on ice; fractions on SDS-PAGE
T1 construct: CBP80 (NCBP1), human, CBP80ΔNLS lacking the N-terminal 19 residues; CBP20 (NCBP2), human; also called CBP80–CBP20; source: CBP80ΔNLS in High Five insect cells, CBP20 in E. coli BL21Star (DE3); pellets lysed together, purified (Ni2+-chelating Sepharose, TEV, heparin, Superdex 200)
T1 sequence 1: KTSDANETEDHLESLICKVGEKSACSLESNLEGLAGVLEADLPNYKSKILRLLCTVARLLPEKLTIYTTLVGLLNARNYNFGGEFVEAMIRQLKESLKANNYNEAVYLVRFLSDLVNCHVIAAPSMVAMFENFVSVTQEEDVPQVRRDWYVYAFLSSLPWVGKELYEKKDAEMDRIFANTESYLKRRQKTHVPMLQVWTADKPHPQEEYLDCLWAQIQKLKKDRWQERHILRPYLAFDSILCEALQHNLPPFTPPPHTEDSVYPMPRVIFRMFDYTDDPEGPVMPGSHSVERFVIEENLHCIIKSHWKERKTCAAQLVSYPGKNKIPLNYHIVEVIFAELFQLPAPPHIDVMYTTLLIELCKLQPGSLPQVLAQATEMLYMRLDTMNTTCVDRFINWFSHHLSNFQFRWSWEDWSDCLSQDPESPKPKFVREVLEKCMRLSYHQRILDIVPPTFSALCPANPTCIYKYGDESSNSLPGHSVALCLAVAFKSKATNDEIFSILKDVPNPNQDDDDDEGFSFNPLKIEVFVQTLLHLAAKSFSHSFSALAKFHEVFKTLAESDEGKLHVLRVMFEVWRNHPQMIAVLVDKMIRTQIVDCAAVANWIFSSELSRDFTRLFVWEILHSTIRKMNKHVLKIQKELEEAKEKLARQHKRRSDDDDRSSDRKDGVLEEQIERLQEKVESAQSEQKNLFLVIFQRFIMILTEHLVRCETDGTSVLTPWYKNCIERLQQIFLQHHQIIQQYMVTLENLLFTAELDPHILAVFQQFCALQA
T1 sequence 2: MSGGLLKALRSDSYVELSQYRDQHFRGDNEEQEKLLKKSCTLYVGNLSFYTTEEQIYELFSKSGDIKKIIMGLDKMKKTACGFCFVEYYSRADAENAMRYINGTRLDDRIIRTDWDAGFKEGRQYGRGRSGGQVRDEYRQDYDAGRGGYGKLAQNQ

[2] = molecular target: Human Ran Q69L bound to GTP (human, UniProt P62826 1-216, Q69L); test: as above
[3] = molecular target: T2, Human CRM1 (human, UniProt O14980 1-1071); test: as above
T2 construct: CRM1 (XPO1), human; also called XPO1; exportin CRM1; source: E. coli Tg1, pQE60, purified (Ni2+-chelating Sepharose, heparin, Superdex 200)

[4] = molecular target: T1, Human nuclear cap-binding complex …; test: ITC; 25 °C, PEAQ-ITC; 0.2–0.25 mM PHAX 103–196 or mutant injected into 20 µM CBC in the presence or absence of 0.1 mM m7GTP or m7GpppG; 20 mM Tris pH 8.0, 100 mM NaCl, 2% glycerol; one-site model
[5] = molecular target: T3, Human full-length PHAX, phosphorylated in vitro by CK2 (human, UniProt Q9H814 1-394, phosphorylated by CK2 in vitro: between 3 and 5 phosphorylated sites, up to four within ST2 (residues 64–76); the positions are not given); test: cryo-EM structure; snRNA export complex of CBC, CK2-phosphorylated PHAX, CRM1, Ran(Q69L)GTP and 14-nt capped RNA, purified on Superdex 200 Increase; Titan Krios 300 kV
T3 construct: PHAX (Phosphorylated Adaptor for RNA Export), human, 394 amino acid residues; also called P-PHAX; phosphorylated PHAX; source: E. coli BL21Star (DE3), pETM11, purified (Ni2+-chelating Sepharose, heparin, Superdex 200); then treated with CK2 and ATP

[6] = molecular target: T4, CBP80ΔNLS (subunit of the human CBC) (human, UniProt Q09161 20-790); test: as above
T4 construct: CBP80 (NCBP1), human, lacking the N-terminal 19 residues; Stood in the assay as part of CBC; made a molecule of its own for the contacts seen in the structure; also called NCBP1; source: High Five insect cells; purified together with CBP20 as CBC
T4 sequence (looked up): T1 sequence 1

T3 sequence (Q9H814 whole entry, the tested form may be a part): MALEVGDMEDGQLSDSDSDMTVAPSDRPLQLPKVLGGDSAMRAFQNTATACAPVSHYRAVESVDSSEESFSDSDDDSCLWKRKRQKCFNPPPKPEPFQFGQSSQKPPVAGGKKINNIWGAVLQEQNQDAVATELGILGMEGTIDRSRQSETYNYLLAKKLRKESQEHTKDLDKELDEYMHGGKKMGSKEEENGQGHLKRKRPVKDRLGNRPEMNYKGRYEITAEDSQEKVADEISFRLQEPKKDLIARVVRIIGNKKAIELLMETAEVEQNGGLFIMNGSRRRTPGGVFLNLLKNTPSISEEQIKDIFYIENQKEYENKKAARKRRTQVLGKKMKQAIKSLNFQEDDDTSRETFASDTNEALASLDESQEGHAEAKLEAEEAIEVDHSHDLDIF
T2 sequence (O14980 whole entry): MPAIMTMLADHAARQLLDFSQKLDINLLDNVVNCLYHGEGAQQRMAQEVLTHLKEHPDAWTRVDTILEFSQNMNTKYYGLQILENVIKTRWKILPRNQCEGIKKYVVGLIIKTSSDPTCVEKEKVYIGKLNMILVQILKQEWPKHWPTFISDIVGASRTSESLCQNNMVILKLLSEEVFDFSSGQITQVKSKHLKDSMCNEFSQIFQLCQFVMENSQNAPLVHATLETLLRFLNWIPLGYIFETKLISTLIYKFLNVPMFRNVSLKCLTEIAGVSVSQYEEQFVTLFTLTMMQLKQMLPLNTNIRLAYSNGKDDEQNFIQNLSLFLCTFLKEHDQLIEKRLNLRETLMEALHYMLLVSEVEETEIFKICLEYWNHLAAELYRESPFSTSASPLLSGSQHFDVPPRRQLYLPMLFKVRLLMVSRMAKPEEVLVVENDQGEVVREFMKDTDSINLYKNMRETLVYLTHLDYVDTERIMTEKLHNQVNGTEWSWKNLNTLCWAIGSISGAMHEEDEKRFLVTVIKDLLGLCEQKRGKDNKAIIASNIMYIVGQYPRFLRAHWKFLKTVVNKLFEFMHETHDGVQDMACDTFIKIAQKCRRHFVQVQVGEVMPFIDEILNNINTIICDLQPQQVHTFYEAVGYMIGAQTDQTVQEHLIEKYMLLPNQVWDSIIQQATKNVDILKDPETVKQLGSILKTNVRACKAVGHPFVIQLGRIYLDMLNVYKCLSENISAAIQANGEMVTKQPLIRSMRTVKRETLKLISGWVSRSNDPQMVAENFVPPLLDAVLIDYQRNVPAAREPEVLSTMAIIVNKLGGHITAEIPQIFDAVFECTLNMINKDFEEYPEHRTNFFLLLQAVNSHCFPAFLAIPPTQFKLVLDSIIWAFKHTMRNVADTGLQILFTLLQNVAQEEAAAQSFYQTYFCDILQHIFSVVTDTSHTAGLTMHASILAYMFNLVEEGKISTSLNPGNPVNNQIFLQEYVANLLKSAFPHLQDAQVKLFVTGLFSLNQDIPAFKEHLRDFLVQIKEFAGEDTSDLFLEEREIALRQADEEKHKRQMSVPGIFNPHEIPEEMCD

B1: MBP-PHAX103–196 (wild type) (domain or fragment, human, UniProt Q9H814 103-196, looked up)
chain: SQKPPVAGGKKINNIWGAVLQEQNQDAVATELGILGMEGTIDRSRQSETYNYLLAKKLRKESQEHTKDLDKELDEYMHGGKKMGSKEEENGQGH
notes: source: E. coli BL21Star (DE3), pETM41, purified (Ni2+-chelating Sepharose, Superdex 200); not shown: MBP, N-terminal, kept
B1: binds [1]; binds [2]; binds [3].

B2: MBP-PHAX103–196 Y154A (domain or fragment, human, UniProt Q9H814 103-196, looked up)
chain: B1 chain with Y52A
notes: as for B1
B2: binds [1].

B3: MBP-PHAX103–196 R147E, Y152E, Y154E (domain or fragment, human, UniProt Q9H814 103-196, looked up)
chain: B1 chain with R45E, Y50E, Y52E
notes: as for B1
B3: binds [4].

B4: CBP20 (subunit of the human CBC) (natural protein)
chain: T1 sequence 2
notes: CBP20 (NCBP2), human; Stood in the assay as part of CBC; made a molecule of its own for the contacts seen in the structure; also called NCBP2; source: E. coli BL21Star (DE3), pETM30; purified together with CBP80ΔNLS as CBC
B4: binds [5]; binds [6].
